Data from paper doi:10.1101/2021.06.14.21258871.

Molecular target: recombinant stabilized complete spike protein (SARS-CoV-2), pre-fusion stabilised (SARS-CoV-2) (UniProt P0DTC2)
Experiment: affinity purification with mass spectrometry

Q: Which mean MALDI-ToF peak intensity of eluted HSA does the source give for “human serum albumin (from UniProt P02768 25-609) (natural protein)” here?
A: Its mean MALDI-ToF peak intensity of eluted HSA is 1920 AU.

Q: And the percent of samples in which HSA was detected in the eluate?
A: Its percent of samples in which HSA was detected in the eluate is 72%.
